B1: petB 5' UTR (ssRNA)
RNA: GGUAGUUCGACCGCGAAAUUUUUUUCUGCAUUGUAUAUUUCCGGAAUAUGAGUGUGUGACUUGUUAGAAU
B2: petB 3' UTR (ssRNA)
RNA: GACUGAAGCUAACUUUGGUUGGUUAAUCCGAUCAGUUCAUCGAUGGUCGGCAAGUAUGAUGGUCCUAAUG
B3: 23S-4.5Sa dsRNA (dsRNA)
RNA 1: UUCCUCUAUUUGUUCGAUAGGGGAGAUUCCGACUUCCCCAGAGCCUCCGGUAGCACAGCCGAGACAGCAACGGGUUCUCCGCCCCUGCGGGGAUG
RNA 2: CAUCCCCGCAGGGGCGGAGAACCCGUUGCUGUCUCGGCUGUGCUACCGGAGGCUCUGGGGAAGUCGGAAUCUCCCCUAUCGAACAAAUAGAGGAA

The series concerns the target T1, GST-Rho-N-Strep (RHON1 C-terminal Rho-N domain) (Arabidopsis thaliana, UniProt Q94K75 362-401).
T1 chain: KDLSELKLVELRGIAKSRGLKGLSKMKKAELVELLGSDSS
Description: EMSA.
On to B1, for which the binding result is on record as “binds”.

B2: the binding result is “binds”.

Turning to UUCUAGUACAACUAUUGCAGUAGAAUGACAA (ssRNA) [petA 5' UTR 31-mer], the binding result is reported as “no binding”.

Take B3: the binding result was “no binding”.

(Values after publication PMC3458557.)
